Results on 2 molecules are retold here after patent US20220177457A1, “SMALL MOLECULES THAT BIND CYCLIN-DEPENDENT KINASE INHIBITOR 1B (P27KIP1)” (St. Jude Children's Hospital, Inc., priority 2019, published 2022).

Assay [1] has as its target p27-KID (Homo sapiens, UniProt P46527). Kind of assay: 2D 1H-15N HSQC NMR screening and titration of compounds into 15N-p27-KID. Conditions: read-out: Kd (from CSP); single-site binding model fitted to chemical shift perturbation; 298 K, pH 6.5.
Protocol: Two-dimensional (2D)^1H-^15N HSQC NMR experiments were performed using a SampleJet sample changer. […] Chemical shift perturbation values were quantified using the equation Δδ=√{square root over (ΔδH^2+(0.2ΔδN)^2)}. The statistical significance was based on a threshold defined as the average CSP value plus two times the standard deviation of the mean (Δδave+2σ).
The target in assay [2] is T1, Cdk2 (Homo sapiens, UniProt P24941).
T1 construct: Full length human Cdk2; made in house
Kind of assay: Isothermal titration calorimetry of p27 variants into Cdk2. Conditions: ITC at 25° C., binding to Cdk2. The procedure: (§1) ITC experiments were performed using a MicroCal ITC200 calorimeter with p27 variants in the syringe and Cdk2/cyclin A and Cdk2, respectively, in the cell. Prior to each set of experiments, protein samples were extensively dialyzed together against ITC buffer containing 20 mM HEPES, pH 7.5, 300 mM NaCl, 5 mM TCEP. A standard titration consisted of 19 injections of 2-μl of p27 variant (100 μM) into a solution of Cdk2/cyclin A (10 μM) or Cdk2 (10 μM), respectively. The time interval between injections was 180 s. Experiments were performed at 25° C. Thermodynamic parameters were obtained by fitting the raw data using Origin software (OriginLab) according to the manufacturers instructions using a 1:1 binding model to obtain values of the enthalpy of binding (ΔH), Gibbs free energy of binding (ΔG), entropy of binding (ΔS), and stoichiometry factor (N). Experiments were performed in triplicate and mean and standard deviations of the mean values of these parameters are reported.

Assay [3] deals with T2, Cdk2/cyclin A (Homo sapiens, UniProt P24941).
T2 construct: Full length human Cdk2; made in house
Kind of assay: Isothermal titration calorimetry of p27 variants into Cdk2/cyclin A. The following applies: ITC at 25° C., binding to Cdk2/cyclin A. The procedure: as §1
In general terms: Isothermal titration calorimetry measures the heat released or taken up as one component is titrated into another.

The target of assay [4] is T2, Cdk2/cyclin A. As to the kind of experiment: Cdk2/cyclin A kinase activity assay (32P incorporation into Histone H1). Type of assay: biochemical. Conditions: Histone H1 as substrate; read-out: Half maximal Cdk2/cyclin A inhibitory concentration (IC50). The procedure:
Cdk2/Cyclin A ([…]) was mixed with Histone H1 (50 μM; EMD Millipore) and varied amounts of p27 constructs and incubated for 3 hours at 4° C. […] IC50 values were determined by curve fitting using GraphPad Prizm 7 software. Experiments were performed in triplicate and mean IC50 and standard deviations of the mean values are reported.

Sequence of p27-KID (P46527 22-105): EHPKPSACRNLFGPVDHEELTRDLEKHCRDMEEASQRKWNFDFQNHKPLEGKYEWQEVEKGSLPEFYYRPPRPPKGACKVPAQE

Turning to `O=c1oc2cc(OCCO)ccc2c2c1CCCC2` [SJ710], the Kd in assay [1] was 4800 ± 1300 µM.
In the case of “p27-D2: D2 sub-domain of p27, residues 58-105 of human p27 (RKWNFDFQNHKPLEGKYEWQEVEKGSLPEFYYRPPRPPKGACKVPAQE; UniProt P46527 58-105, looked up, fragment)”, in assay [2], the Kd is 0.231 ± 0.0674 µM, the ΔG was -9.1 ± 0.2 kcal/mol, the ΔH is -24.5 ± 0.7 kcal/mol and the −TΔS came out at 15.4 ± 0.9 kcal/mol. In assay [3], this molecule returned a Kd of 0.134 ± 0.0235 µM, a ΔG of -9.4 ± 0.1 kcal/mol, a ΔH of -24.7 ± 1.8 kcal/mol and a −TΔS of 15.3 ± 1.9 kcal/mol. Moreover, the IC50 in assay [4] turned out to be 0.067 ± 0.022 µM.

In general, Kd refers to the free concentration of one partner at which half of the binding sites on the other are occupied at equilibrium, for simple one-to-one binding.
